Measured values taken from US7462695B2, “Insect chymotrypsin and inhibitors thereof” (Hexima Limited, priority 2003, dated 2008).
One block for each molecule: values may come before it.

What was measured:
[1] = target: NaPI-insensitive chymotrypsins from H. punctigera (Helicoverpa punctigera, UniProt A0PGE0); experiment: Inhibition of NaPI-insensitive chymotrypsin (gut extract depleted of trypsins and NaPI-sensitive chymotrypsins); format: biochemical; details: pH 10, 30 min preincubation at 30° C.; for % Inhibition Insensitive: at maximum concentration tested
Method: The midgut was dissected from 100 fourth instar larvae and buffer soluble extracts were prepared. The gut extract was depleted of NaPI-sensitive proteases by passage through an affinity column composed of immobilized NAPI protein (C1, C2, T1-T4). […] This preparation of unbound material was used to study the pH optimum, substrate preference and effect of a range of proteinase inhibitors on the activity of the NaPI-insensitive proteinase. […] The best substrate for enzyme assays was determined using seven different commercial substrates.
(§1) Several proteinase inhibitors were tested for their ability to inhibit the activity of the insensitive chymotrypsins. The buffer used for all assays was 500 mM CAPS, 75 mM NaCl, 2.5 mM MgCl2 at pH 10.

[2] = system: chymotrypsin activity in gut extracts of H. punctigera larvae; experiment: Inhibition of chymotrypsin activity in individual larval gut extracts (FIG. 2F); format: biochemical, Helicoverpa punctigera; details: 80 nM inhibitor; SAAPFpNA substrate
Source text: (§2) FIG. 2 is a graphical representation showing growth of H. punctigera larvae fed on either low protein haricot bean artificial diet or cotton leaf artificial diet, in the presence or absence of 0.26% (w/v) NaPIs. Weight gain (mg) was monitored for 21 days. […] (A) Growth of larvae. (B) Relative size of larvae at 21 days after feeding on cotton artificial diet, in the presence or absence of 0.26% NaPIs. […] (C) The effect of NaPIs on gut trypsin and chymotrypsin activity. When each H. punctigera larva reached the late fourth/early fifth instar stage of development, the gut was removed and gut extract prepared prior to assays for trypsin and chymotrypsin activity. […] Trypsin activity was determined using BApNA substrate and chymotrypsin activity with SAAPFpNA substrate. Units of activity are expressed as change in absorbance at 405 nm/min/mg gut extract protein (±standard deviation). […] Trypsin activity was determined using BApNA substrate and chymotrypsin activity with SAAPFpNA substrate. Units of activity are expressed as change in absorbance at 405 nm/min/mg faecal extract protein (±standard deviation). […] Frass extracts were analysed on 15% ((w/v)) SDS-PAGE and transferred to nitrocellulose. […] Units of activity are expressed as substrate hydrolysis at 405 nm/min/mg extract protein (±standard deviation). […] Trypsin activity was determined using BApNA substrate. […]

[3] = system: chymotrypsin activity in unfractionated gut extracts from H. punctigera; experiment: Chymotrypsin activity in unfractionated gut extracts with proteinase inhibitors (FIG. 3); format: biochemical, Helicoverpa punctigera; details: larvae raised on haricot bean diet without added proteinase inhibitors; substrate SAAPFpNA
Method: FIG. 3 is a graphical representation showing the effect of various proteinase inhibitors on the chymotrypsin activity in unfractionated gut extracts from H. punctigera. Proteinase inhibitors were mixed with 1 μg of protein from an unfractionated gut extract before incubation with the chymotrypsin substrate N-succinyl-Ala-Ala-Pro-Phe-p-nitroanilide. Inhibition is expressed as a percentage of the total activity in the control samples.
Fourth-instar larvae were killed using ethyl-acetate prior the removal of individual gut which were then homogenized in a mortar and pestle in an equal amount [(w/v)] of 50 mM Tris-HCl, pH 8.0 containing 100 μM benzamidine. Insoluble material was removed by centrifugation at 20,000 rpm for 15 min at 4° C. and total protein concentration determined using the Bradford method (Bradford, Anal Biochem 72: 248-254, 1976) with reagents from BioRad and BSA as a standard.
Unfractionated gut extract containing approximately 1 μg of buffer soluble protein was added to 10 μL CAPS buffer (0.5 M, 3-[cyclohexylamino]-1-propane-sulfonic acid, pH 10) and made to a final volume of 100 μL in individual wells of a 96 well microtiter plate. Proteinase inhibitors were added over a range of concentrations and incubated for 15 min at 25° C. Bovine chymotrypsin (100 ng) was used as a positive control, both for activity and inhibition. The chromogenic artificial substrate SAAPFpNA (N-Succinyl-L-alanyl-L-alanyl-L-prolyl-L-phenylalanine 4-nitroanilide) was then added to a final concentration of 1 mM and hydrolysis of the substrate was measured at 405 nm using the SpectraMax 250 microtiter plate reader (Molecular Devices).

[4] = target: bovine chymotrypsin (Bos taurus, UniProt P00766); experiment: Inhibition of bovine chymotrypsin; format: biochemical; details: 100 ng bovine chymotrypsin, pH 10; for % Inhibition BC: at maximum concentration tested
Method: as §1

[5] = system: trypsin activity in gut extracts of H. punctigera larvae; experiment: Inhibition of trypsin activity in individual larval gut extracts by T1 (FIG. 2F); format: biochemical, Helicoverpa punctigera; details: 80 nM inhibitor; BApNA substrate
Source text: as §2

[6] = system: H. armigera larvae; experiment: Bioassay of H. armigera larvae on transgenic cotton expressing NaPI and StPotIA (FIG. 27); format: in vivo, Helicoverpa armigera
Method: FIG. 27 is a graphical representation showing growth of H. armigera larvae on transgenic cotton expressing NaPI and PotI. Transgenic cotton cv Coker 315 was used in bioassays with H. armigera. Thirty larvae were fed leaves of either the control untransformed Coker 315, transgenic line 1 (NaPI), transgenic line 2 (StpotIA) or transgenic plant 3 (NaPI×StPot1A). The weight of the larvae was measured at day 7 post-egg hatch. (A) Growth of larvae. At day 7, larvae fed leaves expressing NaPI were 86% of the weight of the control larvae fed untransformed leaves. Larvae fed leaves expressing StPotIA were 92% of the control and larvae fed leaves expressing both NAPI and StPotIA were 46% of the control. (B) The effect of ingestion of NAPI and PotI on gut trypsin and chymotrypsin activity. Gut from the larvae in each experiment were pooled and extracts prepared. All assays were performed in duplicate. Trypsin activity (black) was determined using BApNA substrate and chymotrypsin activity (grey) with SA2PFpNA substrate. Units of activity are expressed as change in absorbance at 405 nm/min/ug gut extract protein. Trypsin activity was reduced, relative to the control, in the extracts from larvae fed leaves expressing NaPI and NaPI+StPotIA. Chymotrypsin activity was elevated in extracts from larvae fed leaves expressing NAPI or NAPI+StPotIA and reduced in extracts from larvae fed StPotIA alone.
Two gene constructs (pHEX2 and pHEX6) were prepared for transformation of cotton (Gossypium hirsutum). pHEX2 consists of a 35S promoter driving the NaPI gene with a 35S terminator, inserted into the binary vector pBIN 19 (Bevan, Nucl. Acids Research, 12: 8711-8721, 1984). pHEX6 consists of a 35S promoter driving the StPotIA gene with a 35S terminator inserted into the binary vector pBIN 19.
Transgenic cotton was produced using the method of Umbek et al., Biotechnology, 5: 263-266, 1987) with modifications. Hypocotyl sections of cotton Cv Coker 315 were co-cultivated with Agrobacterium tumefaciens strain LBA 4404 containing the required binary vector. […]

[7] = system: NaPI-insensitive chymotrypsins from H punctigera; experiment: Inhibition of NaPI-insensitive chymotrypsins by StPotIA and StPotIB (FIG. 26); format: biochemical, Helicoverpa punctigera
Method: FIG. 26 is a graphical representation showing inhibition of NaPI-insensitive chymotrypsin by bacterially expressed StPotIA and StPotIB. Inhibition of the NAPI-insensitive chymotrypsin from the gut of H. punctigera with purified PotI. (A) substrate SA2PFpNA, development time 30 min, (B) substrate SA2PLpNA, 30 min incubation. Mix of PotI isoforms from potato tuber (circle), StPotIA (square), StPotIB (triangle).
The inhibitory activity of StPotIA and StPotIB against the NaPI-insensitive chymotrypsins from H punctigera was determined by preincubating the NaPI-insensitive protease (10 μL) with varying amounts of StPotIA and StPotIB (0-600 nM) in 133 mM CAPS buffer, pH 10.0 at 30° C. in 96 well microtitre plates. After the 30 min preincubation, the incubation was started by the addition of substrate (SA2PFpNA, SA2PLpNA or SA2PMpNA) to a final concentration of 1 mM in a final volume of 100 μL. Absorbance was measured at 405 nm after 30 or 60 min.

Sequence of NaPI-insensitive chymotrypsins from H. punctigera (A0PGE0 entry or part of it): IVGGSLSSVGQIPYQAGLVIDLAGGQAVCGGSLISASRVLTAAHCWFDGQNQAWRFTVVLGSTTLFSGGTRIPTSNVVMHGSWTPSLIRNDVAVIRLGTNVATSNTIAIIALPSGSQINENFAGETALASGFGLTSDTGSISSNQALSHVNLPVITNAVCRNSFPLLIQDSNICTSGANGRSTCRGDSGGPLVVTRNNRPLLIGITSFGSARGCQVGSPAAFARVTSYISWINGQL

Molecule: O=S(=O)(F)Cc1ccccc1 [PMSF, phenylmethyl sulphonyl fluoride, reference compound]
% Inhibition Insensitive [1]: 100%

inhibition of gut chymotrypsin activity [3]: 70%
Molecule: C1: 6 kDa chymotrypsin inhibitor monomer released from the N. alata PI precursor (SEQ ID NO:23) (DRICTNCCAGTKGCKYFSDDGTFVCEGESDPRNPKACTLNCDPRIAYGVCPRSEEKKN; listed as Nicotiana alata)
inhibition of chymotrypsin activity, extracts of control larvae (in words) [2]: did not inhibit chymotrypsin activity in the extracts of six control larvae and only partially inhibited the gut chymotrypsins in the rest of the controls

Molecule: CC(=O)N[C@@H](CC(C)C)C(=O)N[C@@H](CC(C)C)C(=O)N[C@H](C=O)CCCNC(=N)N [Leupeptin, reference compound]
IC50 [4]: 2400 µM | % Inhibition BC [4]: 52%

Molecule: T1: 6 kDa trypsin inhibitor monomer released from the N. alata PI precursor (SEQ ID NO:24) (DRICTNCCAGTKGCKYFSDDGTFVCEGESDPRNPKACPRNCDPRIAYGICPLAEEKKN; listed as Nicotiana alata)
inhibition of trypsin activity, extracts from NaPI-fed larvae [5]: could not be inhibited | inhibition of trypsin activity, extracts of control larvae [5]: almost totally inhibited

% Inhibition Insensitive [1]: 100% | IC50 [1]: 0.24 µM | IC50 [4]: 0.06 µM | % Inhibition BC [4]: 100%
B1: Bowman Birk: soybean Bowman Birk inhibitor, purchased from Sigma-Aldrich (protein, UniProt P01055 40-110, looked up)
Bowman-Birk type proteinase …: DDESSKPCCDQCACTKSNPPQCRCSDMRLNSCHSACKSCICALSYPAQCFCVDITDFCYEPCKPSEDDKEN
inhibition of gut chymotrypsin activity (in words) [3]: failed to abolish all the chymotrysin activity

B2: StPotIA: PotI homolog cloned from wounded potato leaf RNA, alanine at P1 site (SEQ ID NO:81); E. coli expressed, His-tagged (protein)
chain: MESKFAHIIVFFLLATSFETLMARKEGDGSEVIKLLKESESESWCKGKQFWPELIGVPTKLAKEIIEKENPSINDVPIILNGTPVPADFRCNRVRLFDNILGDVVQIPRVA
modifications: His tag; potato
notes: E. coli expressed, His-tagged
larval weight as % of control larvae fed untransformed leaves ([6]; day 7 post-egg hatch, protein expressed in transgenic cotton leaves): 92% | effect on larval growth compared to the control (in words) ([6]; expression in cotton leaves): small inhibition of larval growth | gut chymotrypsin activity ([6]; pooled gut extracts, SA2PFpNA): reduced | inhibition of the NaPI-insensitive chymotrypsin (in words) [7]: good inhibitors | inhibition of SA2PMpNA hydrolysis ([7]; substrate SA2PMpNA): 40%
